Target: FGF receptor (on NIH 3T3 fibroblasts)
Test: cell-based or functional assay

| EC50 of mitogenic activity, NIH 3T3 fibroblast proliferation, in the absence of heparin [ng/mL] | EC50 of mitogenic activity, NIH 3T3 fibroblast proliferation, in the presence of 10 U/ml heparin [ng/mL] | fold increase in mitogenic activity relative to wild-type FGF-1, in the absence of added heparin [fold] | Substance |
| --- | --- | --- | --- |
| 5.43 | 0.36 | 10 | Ala66→Cys mutant of human FGF-1 (140 amino acid form, His-tagged), oxidized form (from UniProt P05230 16-155) (ligand) |
| 58.4 | 0.48 | – | wild-type human FGF-1, 140 amino acid form, with an additional amino-terminal six His tag (from UniProt P05230 16-155) (ligand) |

Reference: patent US20100298220A1
